Measured values taken from publication PMC6273887, “cDNA Isolation and Functional Characterization of UDP-D-glucuronic Acid 4-Epimerase Family from Ornithogalum caudatum” (Molecules, 2016).

Substrate: O=C(O)[C@H]1O[C@H](OP(=O)(O)OP(=O)(O)OC[C@H]2O[C@@H](n3ccc(=O)[nH]c3=O)[C@H](O)[C@@H]2O)[C@H](O)[C@@H](O)[C@@H]1O
Experiment: HPLC of UDP-GalA formation, Lineweaver-Burk plot
Format: biochemical, Albuca bracteata
Details: 100 mM PBS, pH 7.8, 37 °C, 20 min, 0.156-10 mM UDP-GlcA, unpurified Pichia supernatant, substrate misprinted UDP-D-Glc, UDP-GlcA in b32 and b56

B1: OcUGlcAE3 (Albuca bracteata) (protein)
chain: MDAMISPSTPGKFKPEKPHHHLHHHHHRPLFRLQHSPLFKCGLIVVCASVVVVLLLCLAPSHPSSSSSSSSSPFAASRIERRSLSASSSSSWGGAEWEKRVRYSARIRRVGGFSVLVTGAGGFVGTHVSAALKRRGDGVLGLDCFNDYYEPSLKRARQALLDRIGVFVVEGDINDGPLLRKLFDVVPFTHVMHLAAQAGVRYAMKNPASYVHSNIAGLVTLLEACKSADPQPAVVWASSSSVYGLNTKVPFSEFHRTDRPASLYAATKKAGEEIAHTYNHIYGLSITGLRFFTVYGPWGRPDMAYFFFTNDLLNGKPITIFEGPKGESVARDFTYIDDIVQGCIGALDTAKKSTGTGGKKRGPAQLRVYNLGNTSPVPVTELVTILERLLKVKANKKVVKMPANGDVQFTHANISLAQRELGYHPTTDLKTGLKRFVRWYIEYYNPPGVASLTKKSARSNSS
notes: full-length ORF (1389 bp); 12,000 g/160,000 g lysate supernatant, unpurified
Km: 170 ± 70 µM
